“Also recorded” adds a separate entry of the source. Where no end group is shown, it is not given here. [ ]: non-standard residue; d: D form. 2Adod = 2-amino-dodecanoic acid; Orn = NCCC[C@H](N)C(=O)O
The substances below were run against T1, Lck (Homo sapiens, UniProt P06239) (assay: Lck Activity above control (1 µM)). Conditions: not given.
T1 construct: purchased Eurofins Pharma Discovery Services UK Limited
Method: Table printed on a drawing sheet, FIG. 4
(§1) Head of the field: Lck Activity above control (1 µM)
First copying reader's note: The first column holds the sequence together with the SEQ ID NO and peptide code in one cell; activity was measured at 1 µM peptide.
(§2) Where the first naming reader finds the target: head: Lck Activity above control (1 µM)

Substance	Lck Activity above control (1 µM) [%]
IAGQ-RSKAKNPLY-RRRRRRRRR (SEQ ID NO: 40, IKM14800) (IAGQRSKAKNPLYRRRRRRRRR)	454
RSKAK-R (SEQ ID NO: 26, IK50100) (RSKAKR)	0
RSKAK-RRR (SEQ ID NO: 28, IK50300) (RSKAKRRR)	0
RSKAK-RRRR (SEQ ID NO: 29, IK50400) (RSKAKRRRR)	0
RSKAKNPLY (SEQ ID NO: 30, IK94000)	0
RSKAKNPLY-KKKKKKKKK (SEQ ID NO: 44, IK94K90)	49
RSKAKNPLY-RRRR (SEQ ID NO: 32, IK14300) (RSKAKNPLYRRRR)	0
RSKAKNPLY-RRRRRRRRR-GPLG (SEQ ID NO: 41, IK148MP9) (RSKAKNPLYRRRRRRRRRGPLG)	320
RSKAKNPLYR (SEQ ID NO: 31, IK14000)	0
r s k a k n p l y - r r r r r r r r r (SEQ ID NO: 129, IKD14800) ([dR][dS][dK][dA][dK][dN][dP][dL][dY][dR][dR][dR][dR][dR][dR][dR][dR][dR])	490

The substances below were run against T1, Lck (assay: In vitro Lck activation kinase study (Eurofins)). Conditions: peptide 1 μM where stated.
Assay type: biochemical
Method: The ability of polypeptides of the present invention to activate Lck was examined in vitro. Lck is member of the Src family of tyrosine kinases. […] All results in are percentage Lck activity relative to control (100%).
Test polypeptides were assessed at a concentration of 1.0 μM.
The ability of polypeptides of the present invention to activate Src family kinases was examined in vitro. Kinase activation studies utilising peptides were carried out as described in Example 1, and all kinase activity values are shown as percentage relative to control.
The ability of polypeptides comprising both lysine and arginine to activate Lck in vitro was examined. Lck activation studies utilising peptides were carried out as described in Example 1, and all kinase activity values are shown as percentage relative to control.
Target sequence in this assay (P06239 whole entry): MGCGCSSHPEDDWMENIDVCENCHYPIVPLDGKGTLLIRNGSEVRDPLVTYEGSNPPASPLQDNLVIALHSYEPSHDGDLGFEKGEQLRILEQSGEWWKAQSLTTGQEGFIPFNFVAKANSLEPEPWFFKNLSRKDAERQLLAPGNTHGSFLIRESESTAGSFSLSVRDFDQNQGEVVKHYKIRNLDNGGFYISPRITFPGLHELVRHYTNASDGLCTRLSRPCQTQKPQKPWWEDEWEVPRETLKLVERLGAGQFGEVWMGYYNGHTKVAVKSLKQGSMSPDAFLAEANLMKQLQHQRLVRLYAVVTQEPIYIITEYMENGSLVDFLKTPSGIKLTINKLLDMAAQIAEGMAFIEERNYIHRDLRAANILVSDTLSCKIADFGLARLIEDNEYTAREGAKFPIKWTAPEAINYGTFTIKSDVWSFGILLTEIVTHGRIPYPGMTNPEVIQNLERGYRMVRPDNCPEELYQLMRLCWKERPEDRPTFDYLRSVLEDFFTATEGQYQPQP

Substance	Lck activation (in words)
Branched < RSKAKNPLY-RRRRRRRRR-HHHHHHHHHH (RSKAKNPLYRRRRRRRRRHHHHHHHHHH; also: branched (1)..(28)) [Br IK14810]	Substantially increased Lck activity
DDDDDDDDD [IKD9]	does not activate Lck
HHHHHHHHHH [10His]	No increase in Lck activity; also recorded: did not induce any activation of Lck
RRRR [SEQ ID NO: 119]	do not activate Lck
RRRRR [SEQ ID NO: 2]	do not activate Lck
RRRRRR [SEQ ID NO: 3]	do not activate Lck
RSKAK [IK5000]	no or negligible Lck activation
RSKAKNPLY-RRRR (RSKAKNPLYRRRR) [SEQ ID NO: 32]	no Lck activation
RVKVKVVVV [IK95000]	substantial increases in Lck activity
[Orn][Orn][Orn][Orn][Orn][Orn][Orn][Orn][Orn][Orn] [10 Orn]	Negligible Lck activity

Same assay, conditions: peptide 1 μM where stated; listed as DDDDDDDDD

Substance	Lck activation (in words)
DDDDDDDDD [IKD9]	does not increase the activity of Lck

Same assay, conditions: peptide 1 μM; relative to control

Substance	increase in Lck activity [%]
RVKVK-RRRRRRRRR-HHHHHHHHHH (RVKVKRRRRRRRRRHHHHHHHHHH) [IK50810]	778

The substances below were run on Fgr (assay: Lck Activity above control (1 µM) | Fgr). Conditions: not given.
Method: Table printed on a drawing sheet, FIG. 2
Head of the field: Lck Activity above control (1 µM) | Fgr
First copying reader's note: Kinase activity above control for each Src family kinase at 1 µM peptide; the cell for IK00800/Fgr is printed as '%' without a digit.
Where the first naming reader finds the target: head: Lck Activity above control (1 µM) | Fgr

Substance	Lck Activity above control (1 µM) | Fgr [%]
KKKKKKKKKK [10Lys]	0
rskaknplyrrrrrrrrr ([dR][dS][dK][dA][dK][dN][dP][dL][dY][dR][dR][dR][dR][dR][dR][dR][dR][dR]) [IKD14800]	0

The substances below were run against T1, Lck (assay: Lck Activity above control (1µM)). Conditions: not given.
Method: First copying reader's note: The Peptide column holds the sequence together with the SEQ ID NO and the peptide code; the activity was measured at 1µM peptide, as the head states.

Substance	Lck Activity above control (1 µM) [%]
DDDDDDDDD-NH2 (SEQ ID NO: 21, IKD9)	0
DSEAENPLY-DDDDDDDDD-NH2 (SEQ ID NO: 23, IKDE800) (DSEAENPLYDDDDDDDDD-NH2)	0
HHH-RRRRRRRRR-HHH (SEQ ID NO: 16, IK03930) (HHHRRRRRRRRRHHH)	386
HHHHH-RRRRRRRRR-HHHHH (SEQ ID NO: 17, IK05950) (HHHHHRRRRRRRRRHHHHH)	286
HHHHHHHHHH (SEQ ID NO: 14, 10His)	0
KKKKKKKK-HHHHHHHHHH (SEQ ID NO: 18, IK00K10)	70
OrnOrnOrnOrnOrnOrnOrnOrnOrnOrn (SEQ ID NO: 15, 10 Orn)	13
RRRR (SEQ ID NO: 1, IK00400)	0
RRRRR (SEQ ID NO: 2, IK00500)	0
RRRRRR (SEQ ID NO: 3, IK00600)	0
RRRRRRRR (SEQ ID NO: 4, IK00800)	126
RRRRRRRR-HHHHHHHHHH (SEQ ID NO: 19, IK00810) (RRRRRRRRHHHHHHHHHH)	259
RRRRRRRRRR (SEQ ID NO: 7, IK00100)	389
RRRRRRRRRRRR (SEQ ID NO: 8, IK01200)	401
RRRRRRRRRRRRRR (SEQ ID NO: 9, IK01400)	351
RRRRRRRRRRRRRR-OH (SEQ ID NO: 11, IK014OH)	156
RRRRRRRRRRRRRRRRRRRR (SEQ ID NO: 12, IK00200) (RRRRRRRRRRRRRRRRRRRRR)	279
RSKAKNPLY-RRRRRRRRR-NH2 (SEQ ID NO: 24, IK14800) (RSKAKNPLYRRRRRRRRR-NH2)	377
RSKAKNPLYR-RRRRRRRR-(2Adod)4-NH2 (SEQ ID NO: 65, IK14804) (RSKAKNPLYRRRRRRRRR-{2Adod-2Adod-2Adod-2Adod-NH2})	468
RVKVKVVVVR-RRRRRRRR-(2Adod)4-NH2 (SEQ ID NO: 66, IK15804) (RVKVKVVVVRRRRRRRRR-{2Adod-2Adod-2Adod-2Adod-NH2})	335

Target: T1, Lck
Test: Lck Activity above control (1 µM)
Conditions: not given
Remark: another data set of the same source
Method: Table printed on a drawing sheet, FIG. 5
as §1
First copying reader's note: The Peptide column holds the sequence together with its SEQ ID NO and IK code in brackets; the activity was measured at 1 µM peptide and the % sign stands in the cells.
as §2

Substance	Lck Activity above control (1 µM) [%]
Branched < RSKAKNPLY-RRRRRRRRR-HHHHHHHHHH (SEQ ID NO: 48, Br IK14810) (RSKAKNPLYRRRRRRRRRHHHHHHHHHH; also: branched (1)..(28))	596
HHHHH-RRRRRRRRR-HHHHH-RSKAKNPLYR (SEQ ID NO: 51, IK59514) (HHHHHRRRRRRRRRHHHHHRSKAKNPLYR)	441
HHHHH-RSKAKNPLY-RRRRRRRRR-HHHHH (SEQ ID NO: 53, IK51455) (HHHHHRSKAKNPLYRRRRRRRRRHHHHH)	685
KEKLKNPLFK-RRRRRRRR-HHHHHHHHHH (SEQ ID NO: 64, IKB2810) (KEKLKNPLFKRRRRRRRRHHHHHHHHHH)	379
RRRRRRRR-HHHHHHHHHH-RSKAKNPLYR (SEQ ID NO: 52, IK81140) (RRRRRRRRHHHHHHHHHHRSKAKNPLYR)	567
RRRRRRRR-RVKVKVVVV-R (SEQ ID NO: 59, IK80150) (RRRRRRRRRVKVKVVVVR)	520
RSKAKNPLY-RKRKRKRKRK (SEQ ID NO: 54, IK94RK0) (RSKAKNPLYRKRKRKRKRK)	456
RSKAKNPLY-RRRRRRRRR-HHHHH (SEQ ID NO: 46, IK14510) (RSKAKNPLYRRRRRRRRRHHHHH)	524
RSKAKNPLY-RRRRRRRRR-HHHHHHHHHHHH (SEQ ID NO: 49, IK14820) (RSKAKNPLYRRRRRRRRRHHHHHHHHHHHH)	556
RVKVKVVVV (SEQ ID NO: 55, IK95000)	518
RVKVKVVVV-RHRHRHRHRHRHRHRH-HH (SEQ ID NO: 61, IK52820) (RVKVKVVVVRHRHRHRHRHRHRHRHHH)	408
RVKVKVVVV-RRRRR (SEQ ID NO: 56, IK15400) (RVKVKVVVVRRRRR)	382
RVKVKVVVV-RRRRRRRR (SEQ ID NO: 57, IK15700) (RVKVKVVVVRRRRRRRR)	512
RVKVKVVVV-RRRRRRRRR (SEQ ID NO: 58, IK15800) (RVKVKVVVVRRRRRRRRR)	479
RVKVKVVVV-RRRRRRRRR-HHHHHHHHHH (SEQ ID NO: 60, IK50810) (RVKVKVVVVRRRRRRRRRHHHHHHHHHH)	778

From US12134663B2, “Cationic peptides for activating Lck” (Interk Peptide Therapeutics Limited, priority 2018, dated 2024)
